Laboratory results as given in US20220389118A1 (Chugai, published 2022).
Where two headings read alike, the source gives them in different places.

T1: human FcγRIIb extracellular domain with C-terminal His tag (human, UniProt P31994 43-217)
T1 construct: extracellular domain; not shown: His tag at the C terminus
T1 sequence (looked up): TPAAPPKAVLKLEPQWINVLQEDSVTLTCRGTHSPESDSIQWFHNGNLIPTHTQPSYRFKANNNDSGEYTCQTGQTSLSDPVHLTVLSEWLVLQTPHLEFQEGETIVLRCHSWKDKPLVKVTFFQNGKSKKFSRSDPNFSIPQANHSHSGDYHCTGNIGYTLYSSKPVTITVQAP

T2: human FcγRIIa type R (allotype R131) extracellular domain with C-terminal His tag (human, UniProt P12318 34-217)
T2 construct: extracellular domain; also called FcγRIIaR; FcγRIIa R type; not shown: His tag at the C terminus
T2 sequence (looked up): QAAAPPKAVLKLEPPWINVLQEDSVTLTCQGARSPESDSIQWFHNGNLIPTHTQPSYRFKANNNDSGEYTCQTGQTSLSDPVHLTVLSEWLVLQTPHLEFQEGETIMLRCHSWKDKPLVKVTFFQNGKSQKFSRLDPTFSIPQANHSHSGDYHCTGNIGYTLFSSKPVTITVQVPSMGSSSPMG

T3: human FcγRIIb extracellular domain with C-terminal His tag (human, UniProt P31994 43-217)
T3 construct: extracellular domain; not shown: His tag at the C terminus
T3 sequence (looked up): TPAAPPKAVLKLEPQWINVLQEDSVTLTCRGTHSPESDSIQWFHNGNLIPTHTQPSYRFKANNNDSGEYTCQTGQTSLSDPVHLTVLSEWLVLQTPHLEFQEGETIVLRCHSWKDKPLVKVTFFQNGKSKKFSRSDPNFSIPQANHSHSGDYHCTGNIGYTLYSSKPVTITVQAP


How the values were obtained:
Assay in all cases: SPR (Biacore), antibody captured, FcγR analyte
[1] = target: T4, human FcγRIIIa type V (allotype V158) extracellular domain with C-terminal His tag (human, UniProt P08637 17-208)
T4 construct: extracellular domain; also called FcγRIIIaV; FcγRIIIa V type; not shown: His tag at the C terminus
T4 sequence (P08637 17-208 F176V): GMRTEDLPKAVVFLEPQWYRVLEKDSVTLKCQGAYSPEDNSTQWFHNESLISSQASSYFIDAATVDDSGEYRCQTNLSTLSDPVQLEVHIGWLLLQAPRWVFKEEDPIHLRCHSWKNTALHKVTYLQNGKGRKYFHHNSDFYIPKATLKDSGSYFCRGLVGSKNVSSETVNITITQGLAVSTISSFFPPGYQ

[2] = target: T1, human FcγRIIb extracellular domain with …
[3] = target: T2, human FcγRIIa type R (allotype R131) …
[4] = target: T3, human FcγRIIb extracellular domain with …; remark: listed apart in the source
[5] = target: T5, human FcγRIa extracellular domain with C-terminal His tag (human, UniProt P12314 16-292)
T5 construct: not shown: His tag at the C terminus
T5 sequence (P12314 16-292): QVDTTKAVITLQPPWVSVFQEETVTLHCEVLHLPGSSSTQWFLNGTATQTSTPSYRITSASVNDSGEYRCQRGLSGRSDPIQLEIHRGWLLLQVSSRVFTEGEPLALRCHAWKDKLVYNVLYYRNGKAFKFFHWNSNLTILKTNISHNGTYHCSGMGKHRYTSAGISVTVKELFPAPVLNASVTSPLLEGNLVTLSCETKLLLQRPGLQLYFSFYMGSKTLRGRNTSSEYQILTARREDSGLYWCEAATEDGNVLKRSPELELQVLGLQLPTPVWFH

Kd [1] [µM] | Kd [2] [nM] | Kd [3] [nM] | Kd [4] [nM] | Kd [5] [nM] | Binder
36 | 69 | 880 |  |  | IL6R-BP185/IL6R-L (antibody, human IgG1, kappa, copies: 2 + 2) heavy: QVQLQESGPGLVKPSETLSLTCAVSGHSISHDHAWSWVRQPPGEGLEWIGFISYSGITNYNPSLQGRVTISRDNSKNTLYLQMNSLRAEDTAVYYCARSLARTTAMDYWGEGTLVTVSSASTKGPSVFPLAPSSKSTSGGTAALGCLVKDYFPEPVTVSWNSGALTSGVHTFPAVLQSSGLYSLSSVVTVPSSSLGTQTYICNVNHKPSNTKVDKKVEPKSCDKTHTCPPCPAPDYLGDDSVFLFPPKPKDTLMISRTPEVTCVVVDVSHEDGEVKFNWYVDGVEVHNAKTKPREEQYNSTYRVVSVLTVLHQDWLNGKEYKCKVSNAALPKPIEKTISKAKGQPREPQVYTLPPSRDELTKNQVSLTCLVKGFYPSDIAVEWESNGQPENNYKTTPPVLDSDGSFFLYSKLTVDKSRWQQGNVFSCSVMHEALHNHYTQESLSLSP light: not shown
 |  |  | 18 | 10 | IL6R-BP230/IL6R-L (antibody, human IgG1, kappa, copies: 2 + 2) heavy: QVQLQESGPGLVKPSETLSLTCAVSGHSISHDHAWSWVRQPPGEGLEWIGFISYSGITNYNPSLQGRVTISRDNSKNTLYLQMNSLRAEDTAVYYCARSLARTTAMDYWGEGTLVTVSSASTKGPSVFPLAPSSKSTSGGTAALGCLVKDYFPEPVTVSWNSGALTSGVHTFPAVLQSSGLYSLSSVVTVPSSSLGTQTYICNVNHKPSNTKVDKKVEPKSCDKTHTCPPCPAPDLLGDDSVFLFPPKPKDTLMISRTPEVTCVVVDVSDEDGEVKFNWYVDGVEVHNAKTKPREEQDNSTYRVVSVLTVLHQDWLNGKEYKCKVSNKALPRPIEKTISKAKGQPREPQVYTLPPSRDELTKNQVSLTCLVKGFYPSDIAVEWESNGQPENNYKTTPPVLDSDGSFFLYSKLTVDKSRWQQGNVFSCSVMHEALHNHYTQESLSLSP light: not shown
 | 40 | 840 |  |  | IL6R-BP201/IL6R-L (antibody, human IgG1, kappa, copies: 2 + 2) heavy: QVQLQESGPGLVKPSETLSLTCAVSGHSISHDHAWSWVRQPPGEGLEWIGFISYSGITNYNPSLQGRVTISRDNSKNTLYLQMNSLRAEDTAVYYCARSLARTTAMDYWGEGTLVTVSSASTKGPSVFPLAPSSKSTSGGTAALGCLVKDYFPEPVTVSWNSGALTSGVHTFPAVLQSSGLYSLSSVVTVPSSSLGTQTYICNVNHKPSNTKVDKKVEPKSCDKTHTCPPCPAPDLLGDDSVFLFPPKPKDTLMISRTPEVTCVVVDVSHEDGEVKFNWYVDGVEVHNAKTKPREEQYNSTYRVVSVLTVLHQDWLNGKEYKCKVSNKALPRPIEKTISKAKGQPREPQVYTLPPSRDELTKNQVSLTCLVKGFYPSDIAVEWESNGQPENNYKTTPPVLDSDGSFFLYSKLTVDKSRWQQGNVFSCSVMHEALHNHYTQESLSLSP light: not shown
 |  |  | 19 | 12 | IL6R-BP547/IL6R-L (antibody, human IgG1, kappa, K409R introduced into IL6R-BP230; copies: 2 + 2) heavy: QVQLQESGPGLVKPSETLSLTCAVSGHSISHDHAWSWVRQPPGEGLEWIGFISYSGITNYNPSLQGRVTISRDNSKNTLYLQMNSLRAEDTAVYYCARSLARTTAMDYWGEGTLVTVSSASTKGPSVFPLAPSSKSTSGGTAALGCLVKDYFPEPVTVSWNSGALTSGVHTFPAVLQSSGLYSLSSVVTVPSSSLGTQTYICNVNHKPSNTKVDKKVEPKSCDKTHTCPPCPAPDLLGDDSVFLFPPKPKDTLMISRTPEVTCVVVDVSDEDGEVKFNWYVDGVEVHNAKTKPREEQDNSTYRVVSVLTVLHQDWLNGKEYKCKVSNKALPRPIEKTISKAKGQPREPQVYTLPPSRDELTKNQVSLTCLVKGFYPSDIAVEWESNGQPENNYKTTPPVLDSDGSFFLYSRLTVDKSRWQQGNVFSCSVMHEALHNHYTQESLSLSP light: not shown
